Substrate in the data set: CCCCC/C=C\C/C=C\C/C=C\C/C=C\CCCC(=O)O
The data set can be described thus: radiometric acyl-CoA synthetase assay. In kind it is biochemical, Rattus norvegicus. As to conditions: ATP, Mg2+.

B1: Acsl3 (Rattus norvegicus) (protein)
chain: MNNHVSSTPSTMKLKQTIHPILLYFIHFIISLYTILTYIPFYFLCESKQEKPNHIKAKPVSSKPDSAYRSVNSMDGLASVLYPGCDTLDKVFMYAKNKFKDKRLLGTREILNEEDEIQPNGKVFKKVILGHYNWLSYEDVFIRALDFGNGLQMLGQKPKANIAIFCETRAEWMIAAQACFMYNFQLVTLYATLGGPAIVHGLNETEVTNIITSKELLQTKLKDIVSLVPRLRHIITVDGKPPTWSEFPKGVIVHTMAAVQALGVKADVDKKAHSKPLPSDIAVIMYTSGSTGIPKGVMISHSNIIASITGMARRIPRLGEEDVYIGYLPLAHVLELSAELVCLSHGCRIGYSSPQTLADQSSKIKKGSKGDTSVLKPTLMAAVPEIMDRIYKNVMNKVNEMSAFQRNLFILAYNYKMEQISKGCSTPLCDRFVFRNVRRLLGGNIRVLLCGGAPLSATTQRFMNICFCCPVGQGYGLTESTGAGTITEVWDYNTGRVGAPLVCCEIKLKNWEEGGYFNTDKPHPRGEILIGGQNVTMGYYKNEAKTKADFFEDENGQRWLCTGDIGEFDPDGCLKIIDRKKDLVKLQAGEYVSLGKVEAALKNLPLIDNICAYANSYHSYVIGFVVPNQKELTELARTKGFNGTWEELCNSSEMENEVLKVLSEAAISASLEKFEIPLKIRLSPDPWTPETGLVTDAFKLKRKELKTHYQADIERMYGRK
Regarding B1, the Km is 48 µM, the Vmax was determined as 0.008 µmol/min/mg and the Vmax/Km amounted to 3e-05 min⁻¹.

Broadly, the Km is the substrate concentration at which the rate is half of its maximum. What is called Vmax is the top rate of the reaction or transport when substrate is in excess.

The values above are taken from paper PMC3037030.
